The values that follow come from the supplement of paper PMC9112550, “Optimization of the antimicrobial peptide Bac7 by deep mutational scanning” (BMC Biology, 2022).

The data set relates to Escherichia coli TOP10. The data set is described as follows: shrunken log2 fold change of peptide-encoding DNA abundance (4.5 h post-induction vs induction); higher = less antimicrobial activity (less host growth inhibition). The settings on record: time post-induction: 4.5 h; library: site-saturation at positions 5, 18, 19, 20.
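Further: peptides expressed intracellularly from a pBAD plasmid library in pooled LB shake-flask culture, induced with 0.3% L-arabinose, DNA abundance read by NGS, three biological replicates, DESeq2 with apeglm shrinkage.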

Consider RRIRDRPPRLPRPRPRPGLVPRP, for which the “shrunken log2 fold change” value amounted to 0.644.

With RRIRHRPPRLPRPRPRPTSSPRP, the “shrunken log2 fold change” value is -0.0142.

RRIRRRPPRLPRPRPRPNVMPRP: the “shrunken log2 fold change” value was -0.149.

RRIRCRPPRLPRPRPRPEEKPRP: the “shrunken log2 fold change” value stood at 0.0239.

For the sequence RRIRWRPPRLPRPRPRPREFPRP, the “shrunken log2 fold change” value came out at 0.349.

Take RRIRQRPPRLPRPRPRPSARPRP: the “shrunken log2 fold change” value was -0.00609.

Take RRIRNRPPRLPRPRPRPWIPPRP: the “shrunken log2 fold change” value is -0.536.

As for RRIRDRPPRLPRPRPRPAWDPRP, the “shrunken log2 fold change” value stood at 0.4.

Turning to RRIRDRPPRLPRPRPRPQAQPRP, the “shrunken log2 fold change” value is -0.0247.

Consider RRIRERPPRLPRPRPRPHQRPRP, for which the “shrunken log2 fold change” value stood at 0.0138.

As to RRIRNRPPRLPRPRPRPRFSPRP, the “shrunken log2 fold change” value was 0.0393.

Regarding RRIRLRPPRLPRPRPRPNQWPRP, the “shrunken log2 fold change” value is -0.117.

RRIRSRPPRLPRPRPRPQVTPRP: the “shrunken log2 fold change” value is -0.196.

RRIRGRPPRLPRPRPRPGWWPRP: the “shrunken log2 fold change” value came out at 0.113.

For the sequence RRIRQRPPRLPRPRPRPNNYPRP, the “shrunken log2 fold change” value was -0.53.

As for RRIRGRPPRLPRPRPRPWGFPRP, the “shrunken log2 fold change” value was -0.126.

In the case of RRIRDRPPRLPRPRPRPPKCPRP, the “shrunken log2 fold change” value came out at 0.0933.

For the sequence RRIRQRPPRLPRPRPRPCKMPRP, the “shrunken log2 fold change” value was 0.0276.

Take RRIRARPPRLPRPRPRPHKWPRP: the “shrunken log2 fold change” value was 0.192.

As for RRIRFRPPRLPRPRPRPKGWPRP, the “shrunken log2 fold change” value amounted to 0.589.

Turning to RRIRARPPRLPRPRPRPKRLPRP, the “shrunken log2 fold change” value is 0.656.

Take RRIRHRPPRLPRPRPRPKALPRP: the “shrunken log2 fold change” value was 0.0359.

In the case of RRIRNRPPRLPRPRPRPCEEPRP, the “shrunken log2 fold change” value was -0.0104.

On to RRIRIRPPRLPRPRPRPYKAPRP, for which the “shrunken log2 fold change” value is -0.361.

As to RRIRWRPPRLPRPRPRPGYGPRP, the “shrunken log2 fold change” value is -0.0305.

Regarding RRIRRRPPRLPRPRPRPMWTPRP, the “shrunken log2 fold change” value is -0.132.

For the sequence RRIRLRPPRLPRPRPRPNWSPRP, the “shrunken log2 fold change” value was -0.136.

RRIRDRPPRLPRPRPRPLDIPRP: the “shrunken log2 fold change” value turned out to be 0.0227.

For RRIRNRPPRLPRPRPRPMKAPRP, the “shrunken log2 fold change” value is -0.158.

RRIRLRPPRLPRPRPRPTKIPRP: the “shrunken log2 fold change” value came to 0.0747.

Turning to RRIRNRPPRLPRPRPRPMSQPRP, the “shrunken log2 fold change” value was -0.0161.

For RRIRERPPRLPRPRPRPYYKPRP, the “shrunken log2 fold change” value is -0.231.

Consider RRIRIRPPRLPRPRPRPSYSPRP, for which the “shrunken log2 fold change” value is -0.694.

For the sequence RRIRQRPPRLPRPRPRPKPDPRP, the “shrunken log2 fold change” value stood at 0.313.

For the sequence RRIRRRPPRLPRPRPRPRHSPRP, the “shrunken log2 fold change” value was 0.226.

As to RRIRYRPPRLPRPRPRPLSNPRP, the “shrunken log2 fold change” value is -0.233.

Take RRIRFRPPRLPRPRPRPRAPPRP: the “shrunken log2 fold change” value stood at 0.821.

For the sequence RRIRRRPPRLPRPRPRPHIMPRP, the “shrunken log2 fold change” value is -0.435.

As for RRIRMRPPRLPRPRPRPVETPRP, the “shrunken log2 fold change” value is -0.00114.

RRIRVRPPRLPRPRPRPSRLPRP: the “shrunken log2 fold change” value came to 0.599.

For the sequence RRIRWRPPRLPRPRPRPTSCPRP, the “shrunken log2 fold change” value worked out at 0.581.

As to RRIRVRPPRLPRPRPRPDKMPRP, the “shrunken log2 fold change” value is -0.0822.

As to RRIRCRPPRLPRPRPRPAISPRP, the “shrunken log2 fold change” value amounted to 0.0324.

Consider RRIRWRPPRLPRPRPRPPKGPRP, for which the “shrunken log2 fold change” value worked out at 0.61.

In the case of RRIRRRPPRLPRPRPRPNPKPRP, the “shrunken log2 fold change” value worked out at 0.172.

RRIRFRPPRLPRPRPRPFIAPRP: the “shrunken log2 fold change” value is -0.489.

RRIRIRPPRLPRPRPRPHFQPRP: the “shrunken log2 fold change” value was -1.78.

Consider RRIRRRPPRLPRPRPRPIKDPRP, for which the “shrunken log2 fold change” value was -0.0902.

For RRIRYRPPRLPRPRPRPGIWPRP, the “shrunken log2 fold change” value turned out to be 0.138.

As to RRIRQRPPRLPRPRPRPIRNPRP, the “shrunken log2 fold change” value is -0.0231.

Turning to RRIRWRPPRLPRPRPRPPRWPRP, the “shrunken log2 fold change” value turned out to be 0.591.

For the sequence RRIRVRPPRLPRPRPRPTWIPRP, the “shrunken log2 fold change” value was 0.216.

Take RRIRHRPPRLPRPRPRPVMTPRP: the “shrunken log2 fold change” value was -0.496.

For the sequence RRIRDRPPRLPRPRPRPAYPPRP, the “shrunken log2 fold change” value is 0.147.

For RRIRDRPPRLPRPRPRPMILPRP, the “shrunken log2 fold change” value is -0.111.

For the sequence RRIRRRPPRLPRPRPRPTWSPRP, the “shrunken log2 fold change” value came out at 0.519.

For RRIRRRPPRLPRPRPRPLVTPRP, the “shrunken log2 fold change” value is -0.0631.

In the case of RRIRRRPPRLPRPRPRPNFLPRP, the “shrunken log2 fold change” value is 0.0376.

Turning to RRIRIRPPRLPRPRPRPNVFPRP, the “shrunken log2 fold change” value is -0.27.

Consider RRIRRRPPRLPRPRPRPWQCPRP, for which the “shrunken log2 fold change” value is -0.0743.

RRIRSRPPRLPRPRPRPSMKPRP: the “shrunken log2 fold change” value was -0.59.

Take RRIRARPPRLPRPRPRPRSKPRP: the “shrunken log2 fold change” value worked out at 0.374.

For the sequence RRIRSRPPRLPRPRPRPCYRPRP, the “shrunken log2 fold change” value is 0.0109.

With RRIRARPPRLPRPRPRPINYPRP, the “shrunken log2 fold change” value is -0.239.

RRIRCRPPRLPRPRPRPTYDPRP: the “shrunken log2 fold change” value is -0.609.

Regarding RRIRERPPRLPRPRPRPIEEPRP, the “shrunken log2 fold change” value is -0.0104.

As for RRIRMRPPRLPRPRPRPDHVPRP, the “shrunken log2 fold change” value was -0.0107.

Take RRIRYRPPRLPRPRPRPIWIPRP: the “shrunken log2 fold change” value was -0.0319.

On to RRIRNRPPRLPRPRPRPACCPRP, for which the “shrunken log2 fold change” value is 0.236.

RRIRRRPPRLPRPRPRPSMGPRP: the “shrunken log2 fold change” value is -0.0183.

As for RRIRTRPPRLPRPRPRPNEAPRP, the “shrunken log2 fold change” value was 0.172.

Take RRIRYRPPRLPRPRPRPTLEPRP: the “shrunken log2 fold change” value is -0.136.

On to RRIRCRPPRLPRPRPRPFGAPRP, for which the “shrunken log2 fold change” value was found to be 0.102.

As to RRIRHRPPRLPRPRPRPVHDPRP, the “shrunken log2 fold change” value came out at 0.079.

As for RRIRMRPPRLPRPRPRPFENPRP, the “shrunken log2 fold change” value came out at 0.00631.

As for RRIRERPPRLPRPRPRPSYFPRP, the “shrunken log2 fold change” value was -0.48.

Regarding RRIRFRPPRLPRPRPRPLIIPRP, the “shrunken log2 fold change” value is -0.575.

On to RRIRWRPPRLPRPRPRPHDDPRP, for which the “shrunken log2 fold change” value was 0.0487.

With RRIRDRPPRLPRPRPRPKMGPRP, the “shrunken log2 fold change” value was -0.0622.

For RRIRDRPPRLPRPRPRPINNPRP, the “shrunken log2 fold change” value is -1.21.

On to RRIRTRPPRLPRPRPRPFGWPRP, for which the “shrunken log2 fold change” value is 0.189.

Regarding RRIRERPPRLPRPRPRPPTNPRP, the “shrunken log2 fold change” value amounted to 0.0754.

Consider RRIRIRPPRLPRPRPRPLDKPRP, for which the “shrunken log2 fold change” value is -0.141.

Consider RRIRHRPPRLPRPRPRPSAAPRP, for which the “shrunken log2 fold change” value was determined as 0.334.

As for RRIRIRPPRLPRPRPRPLTMPRP, the “shrunken log2 fold change” value was -0.181.

For RRIRIRPPRLPRPRPRPYPHPRP, the “shrunken log2 fold change” value was -1.02.

With RRIRCRPPRLPRPRPRPMLMPRP, the “shrunken log2 fold change” value turned out to be 0.0436.

With RRIRIRPPRLPRPRPRPVMAPRP, the “shrunken log2 fold change” value was -0.526.

Turning to RRIRLRPPRLPRPRPRPLGNPRP, the “shrunken log2 fold change” value is 0.102.

On to RRIRQRPPRLPRPRPRPTSDPRP, for which the “shrunken log2 fold change” value is -0.358.

For the sequence RRIRERPPRLPRPRPRPWHTPRP, the “shrunken log2 fold change” value is -0.16.

For RRIRFRPPRLPRPRPRPQCQPRP, the “shrunken log2 fold change” value was -0.0517.

Turning to RRIRRRPPRLPRPRPRPITMPRP, the “shrunken log2 fold change” value is -0.0568.

As for RRIRLRPPRLPRPRPRPQSIPRP, the “shrunken log2 fold change” value is -0.0983.

Consider RRIRNRPPRLPRPRPRPRVKPRP, for which the “shrunken log2 fold change” value came to 0.139.

In the case of RRIRCRPPRLPRPRPRPAGSPRP, the “shrunken log2 fold change” value came out at 0.432.

Take RRIRCRPPRLPRPRPRPTYLPRP: the “shrunken log2 fold change” value was -0.292.

For RRIRYRPPRLPRPRPRPDPIPRP, the “shrunken log2 fold change” value was -0.168.

Take RRIRTRPPRLPRPRPRPPMPPRP: the “shrunken log2 fold change” value came to 0.144.

Take RRIRLRPPRLPRPRPRPLEDPRP: the “shrunken log2 fold change” value was -0.076.

For the sequence RRIRERPPRLPRPRPRPKKQPRP, the “shrunken log2 fold change” value was -0.0932.

With RRIRSRPPRLPRPRPRPGMTPRP, the “shrunken log2 fold change” value is -0.105.

Take RRIRSRPPRLPRPRPRPRKWPRP: the “shrunken log2 fold change” value was determined as 0.139.

Turning to RRIRFRPPRLPRPRPRPEHEPRP, the “shrunken log2 fold change” value is 0.0369.

Consider RRIRKRPPRLPRPRPRPIFHPRP, for which the “shrunken log2 fold change” value stood at 0.381.

For RRIRSRPPRLPRPRPRPCPQPRP, the “shrunken log2 fold change” value was 0.0538.

Consider RRIRWRPPRLPRPRPRPEDYPRP, for which the “shrunken log2 fold change” value is -0.00903.

As for RRIRFRPPRLPRPRPRPIQNPRP, the “shrunken log2 fold change” value was -0.544.

With RRIRSRPPRLPRPRPRPHENPRP, the “shrunken log2 fold change” value worked out at 0.0415.

Turning to RRIRNRPPRLPRPRPRPAPMPRP, the “shrunken log2 fold change” value worked out at 0.237.

For the sequence RRIRNRPPRLPRPRPRPPVSPRP, the “shrunken log2 fold change” value is -0.401.

Take RRIRHRPPRLPRPRPRPTQGPRP: the “shrunken log2 fold change” value is 0.318.

Regarding RRIRERPPRLPRPRPRPVHNPRP, the “shrunken log2 fold change” value is -1.53.

As for RRIRARPPRLPRPRPRPYIEPRP, the “shrunken log2 fold change” value is -0.44.

For RRIRVRPPRLPRPRPRPTNRPRP, the “shrunken log2 fold change” value came to 3.75.

RRIRVRPPRLPRPRPRPFFEPRP: the “shrunken log2 fold change” value amounted to 0.142.

With RRIRRRPPRLPRPRPRPQCLPRP, the “shrunken log2 fold change” value came out at 0.066.

For RRIRVRPPRLPRPRPRPGRWPRP, the “shrunken log2 fold change” value amounted to 0.649.

With RRIRCRPPRLPRPRPRPAEHPRP, the “shrunken log2 fold change” value worked out at 0.0782.

Take RRIRERPPRLPRPRPRPVKWPRP: the “shrunken log2 fold change” value was -0.129.

As for RRIRHRPPRLPRPRPRPRVWPRP, the “shrunken log2 fold change” value turned out to be 0.534.

In the case of RRIRTRPPRLPRPRPRPYFFPRP, the “shrunken log2 fold change” value was -0.684.

RRIRYRPPRLPRPRPRPIPVPRP: the “shrunken log2 fold change” value was -0.0888.

Consider RRIRIRPPRLPRPRPRPELMPRP, for which the “shrunken log2 fold change” value was -0.00872.

Consider RRIRERPPRLPRPRPRPWQQPRP, for which the “shrunken log2 fold change” value stood at 0.015.
